According to publication PMC9482650, “Quantitative fragmentomics allow affinity mapping of interactomes” (Nature Communications, 2022):

B1: ADAM17, P78536 (peptide)
chain: NRVDSKETEC
B2: NDE1, Q9NXR1;Q9NXR1-2 (peptide)
chain: KSTTRSSSSC
B3: SCN4A, P35499 (peptide)
chain: VRPGVKESLV
B4: YAP1, P46937 (peptide)
chain: LDKESFLTWL
B5: PKN2, Q16513 (peptide)
chain: RDFDYIADWC

Key:
Experiment in all cases: holdup assay
Design in all cases: key: below the threshold = too weak to quantify, mostly under pKd 3.1 to 4
Details in all cases: plain residues with an end cap or a label only (N-terminal biotin on a linker: ado-ado)
MAGI3_2, Q5TCQ9 = target: MAGI3_2, Q5TCQ9
Sequence of MAGI3_2, Q5TCQ9 (Q5TCQ9 398-503): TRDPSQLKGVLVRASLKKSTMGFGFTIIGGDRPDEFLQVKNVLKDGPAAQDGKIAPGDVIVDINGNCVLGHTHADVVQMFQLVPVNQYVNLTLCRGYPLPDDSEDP

APBA1_1, Q02410 = target: T1, APBA1_1, Q02410
T1 sequence (Q02410 651-752, limits assumed, looked up): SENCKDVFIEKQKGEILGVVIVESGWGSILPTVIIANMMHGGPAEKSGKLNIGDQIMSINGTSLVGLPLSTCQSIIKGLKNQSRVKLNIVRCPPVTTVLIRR

HTRA2, O43464 = target: HTRA2, O43464
Sequence of HTRA2, O43464 (O43464 355-458): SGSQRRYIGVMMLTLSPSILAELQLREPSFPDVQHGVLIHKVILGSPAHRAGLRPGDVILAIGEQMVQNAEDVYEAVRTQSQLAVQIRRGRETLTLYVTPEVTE

AHNAK1, Q09666 = target: AHNAK1, Q09666
Sequence of AHNAK1, Q09666 (Q09666 4-100): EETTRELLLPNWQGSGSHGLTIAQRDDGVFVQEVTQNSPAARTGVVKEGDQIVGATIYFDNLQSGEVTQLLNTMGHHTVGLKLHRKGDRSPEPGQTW

LNX1_2, Q8TBB1 = target: LNX1_2, Q8TBB1
Sequence of LNX1_2, Q8TBB1 (Q8TBB1 371-470): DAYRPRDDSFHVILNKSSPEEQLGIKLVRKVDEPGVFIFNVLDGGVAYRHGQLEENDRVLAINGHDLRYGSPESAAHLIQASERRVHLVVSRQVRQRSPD

SNX27, Q96L92 = target: SNX27, Q96L92
FRMPD2_3, Q68DX3 = target: FRMPD2_3, Q68DX3
Sequence of FRMPD2_3, Q68DX3 (Q68DX3 1073-1166): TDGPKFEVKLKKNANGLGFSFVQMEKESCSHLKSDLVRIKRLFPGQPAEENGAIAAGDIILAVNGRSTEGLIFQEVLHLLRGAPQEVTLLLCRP

Inadl_5, Q8NI35 = target: Inadl_5, Q8NI35
Sequence of Inadl_5, Q8NI35 (Q8NI35 673-780): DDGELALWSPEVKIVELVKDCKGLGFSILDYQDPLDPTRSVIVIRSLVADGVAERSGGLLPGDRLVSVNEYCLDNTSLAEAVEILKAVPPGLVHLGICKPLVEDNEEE

DLG1_2, Q12959 = target: DLG1_2, Q12959
Sequence of DLG1_2, Q12959 (Q12959 314-412): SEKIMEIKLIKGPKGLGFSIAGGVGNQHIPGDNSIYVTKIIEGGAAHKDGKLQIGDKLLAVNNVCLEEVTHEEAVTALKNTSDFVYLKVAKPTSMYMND

DLG1_3, Q12959 = target: DLG1_3, Q12959
Sequence of DLG1_3, Q12959 (Q12959 457-571): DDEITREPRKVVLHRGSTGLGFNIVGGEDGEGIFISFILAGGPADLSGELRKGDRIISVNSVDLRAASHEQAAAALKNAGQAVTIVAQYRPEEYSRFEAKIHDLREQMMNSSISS

NHERF3_4, Q5T2W1 = target: T2, NHERF3_4, Q5T2W1
T2 sequence (Q5T2W1 373-468, limits assumed, looked up): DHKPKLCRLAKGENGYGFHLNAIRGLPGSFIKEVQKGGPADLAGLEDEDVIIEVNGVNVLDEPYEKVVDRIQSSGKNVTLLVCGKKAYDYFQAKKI

TJP1_3, Q07157 = target: TJP1_3, Q07157
Sequence of TJP1_3, Q07157 (Q07157 416-512): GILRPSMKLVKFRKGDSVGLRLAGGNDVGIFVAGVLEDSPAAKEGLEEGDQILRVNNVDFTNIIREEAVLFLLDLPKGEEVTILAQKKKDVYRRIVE

GRIP1_7, Q9Y3R0 = target: T3, GRIP1_7, Q9Y3R0
T3 sequence (Q9Y3R0 999-1096, limits assumed, looked up): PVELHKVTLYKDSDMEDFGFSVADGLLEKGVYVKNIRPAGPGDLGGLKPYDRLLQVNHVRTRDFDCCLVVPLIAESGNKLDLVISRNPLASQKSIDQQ

Inadl_3, Q8NI35 = target: Inadl_3, Q8NI35
Sequence of Inadl_3, Q8NI35 (Q8NI35 359-469): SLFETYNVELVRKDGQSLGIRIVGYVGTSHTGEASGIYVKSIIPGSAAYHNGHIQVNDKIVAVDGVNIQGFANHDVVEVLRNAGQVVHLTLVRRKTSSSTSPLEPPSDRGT

Inadl_6, Q8NI35 = target: Inadl_6, Q8NI35
Sequence of Inadl_6, Q8NI35 (Q8NI35 1058-1167): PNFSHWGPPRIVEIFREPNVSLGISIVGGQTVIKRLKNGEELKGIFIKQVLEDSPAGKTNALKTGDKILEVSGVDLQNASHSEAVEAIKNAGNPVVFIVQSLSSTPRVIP

GRIP1_4, Q9Y3R0 = target: T4, GRIP1_4, Q9Y3R0
T4 sequence (Q9Y3R0 467-571, limits assumed, looked up): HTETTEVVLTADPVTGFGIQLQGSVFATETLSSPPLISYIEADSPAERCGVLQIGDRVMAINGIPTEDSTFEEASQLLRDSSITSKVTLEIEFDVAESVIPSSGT

PDZD2_2, O15018 = target: T5, PDZD2_2, O15018
T5 sequence (O15018 329-429, limits assumed, looked up): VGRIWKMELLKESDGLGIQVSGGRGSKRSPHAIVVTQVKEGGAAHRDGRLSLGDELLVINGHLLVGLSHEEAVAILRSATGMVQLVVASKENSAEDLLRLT

SNTG2, Q9NY99 = target: T6, SNTG2, Q9NY99
T6 sequence (Q9NY99 68-166, limits assumed, looked up): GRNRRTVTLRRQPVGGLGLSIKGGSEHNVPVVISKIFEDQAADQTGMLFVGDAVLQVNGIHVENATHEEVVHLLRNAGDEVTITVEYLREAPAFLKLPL

MPP7, Q5T2T1 = target: T7, MPP7, Q5T2T1
T7 sequence (Q5T2T1 134-230, limits assumed, looked up): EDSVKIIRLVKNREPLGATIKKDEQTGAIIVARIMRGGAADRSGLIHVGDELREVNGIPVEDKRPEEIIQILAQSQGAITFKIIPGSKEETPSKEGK

DFNB31_2, Q9P202 = target: T8, DFNB31_2, Q9P202
T8 sequence (Q9P202 274-371, limits assumed, looked up): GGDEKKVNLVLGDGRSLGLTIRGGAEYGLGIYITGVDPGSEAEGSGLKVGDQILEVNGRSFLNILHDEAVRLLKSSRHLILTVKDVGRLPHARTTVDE

RADIL, Q96JH8 = target: T9, RADIL, Q96JH8
T9 sequence (Q96JH8 971-1071, limits assumed, looked up): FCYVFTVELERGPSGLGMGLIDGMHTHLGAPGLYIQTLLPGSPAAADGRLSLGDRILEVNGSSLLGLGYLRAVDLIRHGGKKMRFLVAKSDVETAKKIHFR

DLG3_3, Q92796 = target: T10, DLG3_3, Q92796
T10 sequence (Q92796 374-475, limits assumed, looked up): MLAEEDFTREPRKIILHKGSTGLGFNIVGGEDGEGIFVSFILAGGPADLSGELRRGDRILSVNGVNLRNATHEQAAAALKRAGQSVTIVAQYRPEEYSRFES

APBA1_2, Q02410 = target: T11, APBA1_2, Q02410
T11 sequence (Q02410 742-832, limits assumed, looked up): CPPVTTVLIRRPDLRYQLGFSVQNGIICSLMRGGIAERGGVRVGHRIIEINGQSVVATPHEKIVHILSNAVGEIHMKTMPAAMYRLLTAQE

Inadl_2, Q8NI35 = target: Inadl_2, Q8NI35
Sequence of Inadl_2, Q8NI35 (Q8NI35 238-335): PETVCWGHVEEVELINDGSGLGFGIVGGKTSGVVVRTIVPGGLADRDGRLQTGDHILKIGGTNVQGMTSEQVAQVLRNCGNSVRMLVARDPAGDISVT

SCRIB_2, Q14160 = target: SCRIB_2, Q14160
Sequence of SCRIB_2, Q14160 (Q14160 857-960): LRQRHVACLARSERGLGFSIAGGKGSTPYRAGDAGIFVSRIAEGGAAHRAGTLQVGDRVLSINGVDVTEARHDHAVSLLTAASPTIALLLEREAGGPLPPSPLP

TJP1_2, Q07157 = target: TJP1_2, Q07157
Sequence of TJP1_2, Q07157 (Q07157 181-274): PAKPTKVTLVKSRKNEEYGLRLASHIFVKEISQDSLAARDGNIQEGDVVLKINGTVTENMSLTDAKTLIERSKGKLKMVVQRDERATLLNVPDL

LNX1_3, Q8TBB1 = target: LNX1_3, Q8TBB1
Sequence of LNX1_3, Q8TBB1 (Q8TBB1 500-596): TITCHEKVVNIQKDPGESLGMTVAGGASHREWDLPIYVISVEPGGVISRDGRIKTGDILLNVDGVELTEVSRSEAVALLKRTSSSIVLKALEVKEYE

Binder	pKd (MAGI3_2, Q5TCQ9)	pKd (APBA1_1, Q02410)	pKd (HTRA2, O43464)	pKd (AHNAK1, Q09666)	pKd (LNX1_2, Q8TBB1)	pKd (SNX27, Q96L92)	pKd (FRMPD2_3, Q68DX3)	pKd (Inadl_5, Q8NI35)	pKd (DLG1_2, Q12959)	pKd (DLG1_3, Q12959)	pKd (NHERF3_4, Q5T2W1)	pKd (TJP1_3, Q07157)	pKd (GRIP1_7, Q9Y3R0)	pKd (Inadl_3, Q8NI35)	pKd (Inadl_6, Q8NI35)	pKd (GRIP1_4, Q9Y3R0)	pKd (PDZD2_2, O15018)	pKd (SNTG2, Q9NY99)	pKd (MPP7, Q5T2T1)	pKd (DFNB31_2, Q9P202)	also measured
B1	below the threshold	below the threshold	below the threshold	below the threshold	below the threshold	5.06	below the threshold	below the threshold	4.54	3.71	3.49	below the threshold	below the threshold	below the threshold	below the threshold	below the threshold	below the threshold	4.06	3.65	below the threshold	pKd (RADIL, Q96JH8): below the threshold; pKd (DLG3_3, Q92796): 3.95; pKd (APBA1_2, Q02410): below the threshold; pKd (Inadl_2, Q8NI35): below the threshold; pKd (SCRIB_2, Q14160): below the threshold; pKd (TJP1_2, Q07157): below the threshold; pKd (LNX1_3, Q8TBB1): below the threshold
B2	below the threshold	below the threshold	below the threshold	below the threshold	below the threshold	below the threshold	below the threshold	below the threshold	below the threshold	below the threshold	below the threshold	below the threshold	below the threshold	below the threshold	below the threshold	below the threshold	4.09	below the threshold	below the threshold	below the threshold	pKd (RADIL, Q96JH8): below the threshold; pKd (DLG3_3, Q92796): below the threshold; pKd (APBA1_2, Q02410): below the threshold; pKd (Inadl_2, Q8NI35): below the threshold; pKd (SCRIB_2, Q14160): below the threshold; pKd (TJP1_2, Q07157): below the threshold; pKd (LNX1_3, Q8TBB1): below the threshold
B3	5.52	below the threshold	below the threshold	below the threshold	below the threshold	5.28	below the threshold	below the threshold	5.64	3.97	below the threshold	below the threshold	below the threshold	below the threshold	3.54	below the threshold	5.17	4.77	below the threshold	3.95	pKd (RADIL, Q96JH8): 4.22; pKd (DLG3_3, Q92796): 4.1; pKd (APBA1_2, Q02410): below the threshold; pKd (Inadl_2, Q8NI35): below the threshold; pKd (SCRIB_2, Q14160): 4.18; pKd (TJP1_2, Q07157): below the threshold; pKd (LNX1_3, Q8TBB1): below the threshold
B4	4.75	4.06	4.73	below the threshold	below the threshold	5.11	below the threshold	below the threshold	below the threshold	below the threshold	4.18	below the threshold	below the threshold	4.38	5.66	below the threshold	5.88	below the threshold	3.72	below the threshold	pKd (RADIL, Q96JH8): 5.51; pKd (DLG3_3, Q92796): below the threshold; pKd (APBA1_2, Q02410): 4.88; pKd (Inadl_2, Q8NI35): 3.91; pKd (SCRIB_2, Q14160): below the threshold; pKd (TJP1_2, Q07157): 3.67; pKd (LNX1_3, Q8TBB1): below the threshold
B5	below the threshold	3.67	5.11	below the threshold	3.83	4.32	below the threshold	below the threshold	below the threshold	below the threshold	below the threshold	3.89	below the threshold	3.6	3.56	below the threshold	5.54	below the threshold	below the threshold	below the threshold	pKd (RADIL, Q96JH8): 4.2; pKd (DLG3_3, Q92796): below the threshold; pKd (APBA1_2, Q02410): 3.82; pKd (Inadl_2, Q8NI35): below the threshold; pKd (SCRIB_2, Q14160): below the threshold; pKd (TJP1_2, Q07157): 3.6; pKd (LNX1_3, Q8TBB1): below the threshold
